The target in one experiment is T1, rhFAP (Homo sapiens, UniProt Q12884).
T1 construct: purchased Sino Biologicals 10464-H07H
T1 sequence (Q12884 26-760 limits assumed): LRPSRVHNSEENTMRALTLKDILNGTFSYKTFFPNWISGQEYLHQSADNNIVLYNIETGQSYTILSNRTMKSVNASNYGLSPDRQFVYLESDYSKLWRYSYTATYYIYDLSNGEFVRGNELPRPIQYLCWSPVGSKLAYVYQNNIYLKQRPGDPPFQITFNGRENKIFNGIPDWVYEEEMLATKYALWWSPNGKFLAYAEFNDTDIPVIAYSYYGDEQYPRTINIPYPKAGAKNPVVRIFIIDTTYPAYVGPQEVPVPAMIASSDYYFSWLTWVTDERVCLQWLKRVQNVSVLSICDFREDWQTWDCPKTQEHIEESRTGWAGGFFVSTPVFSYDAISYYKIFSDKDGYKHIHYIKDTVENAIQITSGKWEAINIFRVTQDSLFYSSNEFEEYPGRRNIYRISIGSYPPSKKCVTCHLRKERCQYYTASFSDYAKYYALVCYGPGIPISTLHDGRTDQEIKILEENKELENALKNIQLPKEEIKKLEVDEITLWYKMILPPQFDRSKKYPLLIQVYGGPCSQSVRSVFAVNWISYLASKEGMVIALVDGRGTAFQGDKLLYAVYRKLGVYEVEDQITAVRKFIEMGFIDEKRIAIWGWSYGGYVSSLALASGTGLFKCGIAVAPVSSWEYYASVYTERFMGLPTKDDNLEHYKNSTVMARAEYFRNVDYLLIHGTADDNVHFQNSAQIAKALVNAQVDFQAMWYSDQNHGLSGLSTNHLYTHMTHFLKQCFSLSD
The experiment is described as follows: Inhibition assay on SB9 oligopeptidase family (DQ-gelatin). Format: biochemical. The conditions noted are these: antibody up to 1000 nM, enzyme 0.2 nM. The method, then: To determine the inhibitory ability of the antibody a black 96 well plate was blocked for 1 h with blocking buffer. NI-206.82C2 was pipetted at concentrations of 1000, 50, 10, 3.03, 1.01, 0.031, 0.001, and 0 nM in PBS into the according wells. The enzymes were added at a concentration of 0.2 nM. Finally, fluorgenic substrates were then added to the well at a concentration equal to the Michaelis constant (Km) and the velocity of the substrate cleavage was quantified by fluorescence at 360 nm excitation and 460 nm emission. H-Gly-Pro-AMC (AAT Bioquest, 13450) was used for DPP4, DPP9, and DPP8. Z-Gly-Pro-AMC (BaChem, I1145) was used to evaluate the activity of POP/PREP. FAP activity was assessed using DQ-gelatin (Life Technologies, D12054) and cleavage quantified at 495 nm excitation and 515 nm emission.

Experiment [1] relates to murine CT-26 colorectal cancer tissue sections. Put plainly: Immunofluorescence on murine colorectal cancer tissue sections. On the set-up: species or system mouse. The conditions noted are these: Cy5 labelled antibody. The protocol:
NI-206.82C2 was prelabelled with Cyanine 5 antibody labeling kit (Innova Biosciences, 342-0010), and sufficient antibody labelling was validated with a photospectrometer. Cryosections of mouse livers containing syngeneic CT-26 liver metastasis were allowed to dry for 30 min at room temperature the fixed for 10 min in 4% formalin in PBS. Slides were then washed 3 times for 5 minutes in PBS and blocked for 1 hr at room temperature with 5% bovine serum albumin in PBS. The slides were then incubated overnight at 4° C. with staining solution containing DAPI at 0.5 μg/mL, and Alexa 547 phalloidin (Invitrogen) according to the manufacturer's instructions, and either Cy5 labelled NI-206.82C2 or a Cy5 labelled isotype-matched control antibody 3A1 at a concentration of 10 µg/mL, in blocking solution with 0.5% Triton X100. Slides were then washed 3 times in PBS, mounted in Lisbeth's mounting medium, and imaged with an SP8 confocal microscope (Leica Microsystems).

The target of another experiment is T2, FAP from human plasma (Homo sapiens, UniProt Q12884).
T2 construct: from tissue; host or cells: human blood plasma
T2 sequence (Q12884 24-760 limits assumed): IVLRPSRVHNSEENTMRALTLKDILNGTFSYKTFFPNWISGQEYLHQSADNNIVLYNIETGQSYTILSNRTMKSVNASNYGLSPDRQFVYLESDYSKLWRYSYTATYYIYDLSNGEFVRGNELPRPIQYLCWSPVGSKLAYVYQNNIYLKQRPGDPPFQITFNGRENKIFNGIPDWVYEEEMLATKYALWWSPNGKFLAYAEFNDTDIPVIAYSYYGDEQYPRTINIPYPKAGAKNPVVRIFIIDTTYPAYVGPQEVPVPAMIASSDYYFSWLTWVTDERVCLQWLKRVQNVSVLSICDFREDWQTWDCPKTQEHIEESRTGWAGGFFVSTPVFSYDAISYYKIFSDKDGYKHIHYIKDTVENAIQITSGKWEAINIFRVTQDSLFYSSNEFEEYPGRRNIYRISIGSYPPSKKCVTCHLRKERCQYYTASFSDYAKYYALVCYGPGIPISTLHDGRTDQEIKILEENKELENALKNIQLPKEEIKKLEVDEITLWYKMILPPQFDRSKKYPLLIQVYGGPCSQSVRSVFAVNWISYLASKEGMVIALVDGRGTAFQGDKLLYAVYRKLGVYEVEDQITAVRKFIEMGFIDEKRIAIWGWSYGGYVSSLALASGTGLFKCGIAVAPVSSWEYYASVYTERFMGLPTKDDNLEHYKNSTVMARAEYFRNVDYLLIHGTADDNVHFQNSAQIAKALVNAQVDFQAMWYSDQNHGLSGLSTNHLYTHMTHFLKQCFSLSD
Put plainly: Immunoprecipitation of FAP from human plasma, α2AP-AMC cleavage in supernatant. It counts as biochemical. The conditions noted are these: compared to plasma before immunoprecipitation. The protocol:
100 μL of PureProteome G Magnetic Beads (Millipore LSKMAGG02) were suspended in 500 μL of 25 mM TRIS, 0.15M NaCl, and 0.1% Tween 20. Human plasma was diluted 1:5 in PBS to an end volume of 125 μL, separated into four tubes, and incubated for 30 min at RT with rotation. Beads were then collected with a magnetic stand, and the pre-cleared supernatant was transferred to a new tube containing magnetic beads coated with 82C2, 43A11, or 3A1. Antibody-conjugated beads were incubated with the plasma dilution overnight at 4° C. while rotating. Beads were then collected with a magnetic stand and the supernatant was removed of analysis of α2AP-AMC cleavage activity. To determine α2AP-AMC activity in the supernatants, a half area black 96 well plate was blocked with sterile filtered 5% BSA at 37° C. for 1h. Then 40 μL of PBS was added to all the wells, 5 μL of the supernatant solutions to the appropriate wells, and 5 μL of α2AP-AMC solution in methanol was added for a final assay concentration of 10 μM. The fluorescence intensity (cleaved AMC) was measured at 360 nm excitation and 460 nm emission every 3 min over a total time of 30 min and the reaction velocity was calculated using Graphpad Prism 6 software.

B1: NI-206.82C2: recombinant human memory B cell-derived monoclonal anti-FAP IgG1 antibody, variable regions in FIG. 1A, FAP inhibitory (antibody, V domains shown)
VH: QVQLQQSGPGLVKPSQTLSLTCAISGDSVSSNSVTWNWIRQSPSRGLEWLGRTYYRSKWYNDYAVSVKGRITINPDTSKNQFYLQLKSVTPEDAAVYYCARDSSILYGDYWGQGTLVTVSS
VL: QAVLTQPSSLSASPGASASLTCTLPSGINVGTYRIFWFQQKPGSPPQYLLSYKSDSDNHQGSGVPSRFSGSKDASANAGILLISGLQSEDEADYYCMIWHSSAWVFGGGTKLTVL
For B1, the “inhibition of rhFAP” value with rhFAP is “selectively inhibits”. The “staining of CT-26 syngeneic liver metastasis sections” value in experiment [1] is given as “found around the perimeter”. In addition, in the experiment with FAP from human plasma, the “rate of FAP substrate alpha 2 anti-plasmin (α2AP-AMC) cleavage in plasma after immunoprecipitation” value is “significantly reduces”.

These data come from patent US20170369592A1, “NOVEL ANTI-FIBROBLAST ACTIVATION PROTEIN (FAP) ANTIBODIES AND USES DERIVED THEREOF” (Mabimmune Diagnostics AG, priority 2015, published 2017).
